This note sets out measurements from patent US20050060761A1.

The test deals with TrkB receptor (endogenous, at mouse motor nerve terminals) (mouse) (UniProt P15209). Description: cell-based or functional assay.
Chain of UniProt P15209 (P15209 32-821): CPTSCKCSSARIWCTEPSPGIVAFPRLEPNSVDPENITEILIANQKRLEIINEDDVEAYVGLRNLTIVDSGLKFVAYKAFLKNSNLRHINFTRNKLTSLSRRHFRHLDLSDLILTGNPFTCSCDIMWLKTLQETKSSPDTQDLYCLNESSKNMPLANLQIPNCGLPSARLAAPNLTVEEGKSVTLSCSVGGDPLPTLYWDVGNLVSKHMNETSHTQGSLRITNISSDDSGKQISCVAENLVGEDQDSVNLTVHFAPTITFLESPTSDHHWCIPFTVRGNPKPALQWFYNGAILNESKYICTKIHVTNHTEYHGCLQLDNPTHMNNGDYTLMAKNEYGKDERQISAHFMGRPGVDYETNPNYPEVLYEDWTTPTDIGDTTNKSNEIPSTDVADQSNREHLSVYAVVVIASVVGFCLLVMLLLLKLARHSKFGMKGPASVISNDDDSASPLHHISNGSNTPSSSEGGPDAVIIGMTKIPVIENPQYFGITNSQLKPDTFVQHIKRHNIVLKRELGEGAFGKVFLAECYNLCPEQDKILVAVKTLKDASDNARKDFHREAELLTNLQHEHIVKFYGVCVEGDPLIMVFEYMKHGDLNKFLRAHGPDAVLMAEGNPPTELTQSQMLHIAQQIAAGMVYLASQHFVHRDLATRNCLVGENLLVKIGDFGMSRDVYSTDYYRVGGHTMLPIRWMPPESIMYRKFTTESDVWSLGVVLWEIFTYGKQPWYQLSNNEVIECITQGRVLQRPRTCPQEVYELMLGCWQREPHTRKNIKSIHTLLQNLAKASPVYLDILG

“recombinant human Brain Derived Neurotrophic Factor (BDNF) (from UniProt P23560 129-247) (ligand)”: the elevation in the level of GFP-TTC concentration at the NMJ (LAL), 100 ng BDNF was determined as 1.72 fold; the elevation in the level of GFP-TTC concentration at the NMJ (LAL), 250 ng BDNF amounted to 1.15 fold; the increase of GFP-TTC signal at the NMJ by BDNF after BoTx/A treatment is 2.05 fold.

In the case of “recombinant human Neurotrophin 4 (NT-4) (from UniProt P34130 81-210) (ligand)”, the GFP-TTC localization at the NMJ, fold increase turned out to be 1.54 fold.
